For one assay, the system named is MCF-7. The assay is described as follows: Ki67 inhibition in MCF-7 cells. It counts as cell-based, human. The settings on record: breast cancer cell.
For a further assay, the system named is Panc-1. Briefly: IGF driven tumor cell growth, CELL TITER-GLO, Panc-1. It counts as cell-based, human. The following applies: pancreatic cancer cell. As to the method: (§1) NCI-H23, Calu-6, Colo-205, Panc-1, BxPC-3 (ATCC) tumor lines were purchased from ATCC. Cell lines were grown in complete growth medium containing RPMI-1640 (ATCC), 10% fetal bovine serum (Irvine Scientific Inc.) and 50 μg/ml of Gentamycin (Gibco, Invitrogen). Trypsin-EDTA solution (Sigma) was used for removal of adherent cells from culture vessels. Phosphate buffered saline, pH 7.2, was from MediaTech Inc The 96-well clear bottom plates for luminescent assay was purchased from Wallac Inc.
(§2) Cells grown to 80% monolayers were, trypsinized, washed, resuspended and plated into 96-well plates in 200 μl of 2% growth medium at 8×10^3 cells/well for NCI-H23 and Colo-205 cells; and 5×10^3 cells/well for Calu-6, Panc-1 and BxPC-3 cells. After 24 hours, the culture medium was replaced with 100 μl of serum free medium (SFM), and 50 μl of serially diluted antibodies at 4× concentration was added. […] All treatments were done in triplicates. Cell growth was measured using the CELL TITER-GLO™ Luminescent Cell Viability Assay (Promega, Madison, Wis.). The 1:1 mixture of reagent and SFM was added at 200 μl/well. Luminescence was detected on Wallac (Boston, Mass.) plate reader.
(§3) The ability of the selected murine antibodies to inhibit IGF/IGF-1R dependent in vitro growth of several human tumor lines (Lung, H-23, Calu-6; Pancreas, BxPc-3, Panc-1, MiaPaCa and Colon Colo205) was measured by a proliferation assay described in Example 13.
Background: In ATP-based viability assays light output follows the ATP content of the culture.

The subject of another assay is Calu-6. The assay is described as follows: IGF driven tumor cell growth, CELL TITER-GLO, Calu-6. It counts as cell-based, human. The settings on record: lung cancer cells. As for the experimental part:
as §1, §2, §3

A further assay addresses T1, IGF-1R phosphorylation (Homo sapiens, UniProt P08069).
T1 construct: wild type IGF-1R expressed on MCF-7 tumor cells; endogenous in cells; host or cells: MCF-7
The assay is described as follows: Inhibition of IGF-1 and IGF-2 mediated IGF-1R phosphorylation in MCF-7 cells (ELISA). Type of assay: cell-based. The settings on record: murine monoclonal antibodies. As to the method: Cell lines: IGF1R expressing human breast carcinoma cell line MCF-7 (NCI) were maintained at 37° C. and 5% CO2 in MEM eagle (ATCC) containing 10% FBS, 1× non-essential amino acids, 2 mM L-glutamine, 1 mM sodium pyruvate and 1000 U/ml penicillin and streptomycin. Cells were sub-cultured twice weekly for maintenance and assay, and used with a maximum of 12 passages.
MCF-7 cells were plated in 2 ml growth media at 2×10^5 to 4.0×10^5 cells/well in Ploy-D-Lysine coated 12 well plates (BD Biosciences, #35-6470) and cultured at 37° C., 5% CO2. At 48 hours, media removed and cells serum starved overnight at 37° C., 5% CO2 Serum free media was removed and control or test antibodies at indicated concentration were added in 350 ul of fresh serum free media and incubated for 1 hour at room temperature, or alternately at 37° C. Fabs were tested at 200 nM, 20 nM and 2 nM concentration and the mAbs were tested at 67, 6.7 and 0.67 nM. The commercial anti-IGF-1R control antibody used was αIR3 (EMD biosciences, Oncogene Research products, #D27249). […] Ligand was incubated at […] for 37° C. antibody experiments. Cells were lysed in 1× cell lysis buffer (Cell Signal Technologies, #9803) with 1 mM PMSF for 1 hour at room temperature.
Cell lysates were added to ELISA plates pre-coated with IGF-1Rp antibody (Clone 1-2, Biosource International, #AHR0361) and incubated for 2 hours. Following which plates were washed and the plate bound phosphorylated receptor was detected with the biotin labeled anti-phosphotyrosine antibody 4G10 (Catalog #16-103, Upstate Cell Signaling Solutions (Lake Placid, N.Y. (now part of Millipore, Concord, Mass. (USA)) and streptavidin-HRP (BD Pharmingen, #554066). Assay is developed by addition of TMB substrate (Kierkegaard & Perry, #50-76-00) and color stopped by addition of […] (LabChem, Cat#LC25830-1). Optical density is measured at 450 nm using a Molecular Devices plate reader and percent inhibition over the ligand control is calculated for each antibody-ligand sample.
The effect of human anti-IGF-1R antibodies on IGF-1R signaling was evaluated using MCF-7 cells (human breast adenocarcinoma cells).
A general note: An ELISA detects its analyte on a solid surface through an enzyme-linked reagent.

A further assay deals with T2, IGF-1R (Homo sapiens, UniProt P08069).
T2 construct: human IGF-1R(1-903)-Fc (denoted hIGF-1R-Fc, generated by Biogen Idec)
Briefly: Ligand blocking assay (RIA): 125I-IGF-1 / 125I-IGF-2 binding to immobilized IGF-1R. The following applies: murine monoclonal antibodies. The text has this: Ligand blocking assay (RIA). […] Insulin (Arg-Insulin, Cat #01-207) was purchased from Upstate Cell Signaling Solutions (Lake Placid, N.Y. (now part of Millipore, Concord, Mass. (USA)). ^125I-rhIGF-1 (Cat # IM172), ^125I-rhIGF-2 (Cat# IM238) and ^125I-rhInsulin (Cat# IM166) were purchased from Amersham Biosciences (Piscataway, N.J.). AffiPure goat anti-human IgG, Fcγ fragment specific antibodies (Cat #109-005-098, Jackson ImmunoResearch, West Grove, Pa.) was used for IGF-1R-Fc capture. As detection antibody, goat anti-mouse IgG HRP (Cat #1030-05, Southern Biotech Birmingham, Ala.) was used.
Human insulin receptor α-subunit specific antibodies, Clone 83-14, (Cat #AHR0221, Biosource International, Inc., Camarillo, Calif.) and the 47-9 (Cat #E55502M, Biodesign International, Saco, M E) were used as positive controls blocking of insulin-insulin receptor binding experiments. Recombinant IGF-1R-Fc fusion protein was produced at Biogen Idec (Cambridge, Mass.).
As isotype matched mouse negative control antibodies, 2B8 (murine α-CD20.1gG,) and 2B8 mkm.G2a (murine α-CD20 MAb, IgG2a, Biogen Idec, Lot #NB3304-87, San Diego, Calif.) were used. The negative control for Fabs was R001-1B provided by Christilyn Graff (Biogen Idec, Cambridge, Mass.). PBS used in buffers was from BioWhittaker (Cat. # 17-513F, Walkersville, Md.).
Recombinant human IGF-1R (Histidine tagged version) or IGF-1R-Fc was coated onto IMMULON2 HB (high binding) Removawell strips (Dynex Technologies, Inc., cat. #6302) diluted with carbonate coating buffer pH 9.5 to a concentration of 250 ng/well. After overnight incubation at 4° C., the wells were washed three times with washing buffer (0.05% Tween 20/PBS) then blocked with blocking buffer (3% BSA/PBS) for one hour at room temperature. The blocking buffer was removed and the wells washed three more times. Antibody, Fab, or ligand preparations were diluted to desired concentration with dilution buffer (1% BSA/0.05% Tween 20/PBS) and plated at 50 μl per well in duplicate. After 45 minutes at room temperature, 100,000 cpm of either [125I] rhIGF-1 or [125I] rhIGF-2 in 50 μl dilution buffer was added per well. This was incubated at room temperature for one more hour. The wells were washed again three more times and left liquid free after the last wash. The air-dried wells were counted with the Isodata Gamma Counter.
Alternatively, Fabs were evaluated by a modified capture assay, where the IGF-1R-Fc was captured using anti-human IgG immobilized to a plate. Immobilization was carried out by overnight incubation of goat anti-human IgG, Fcγ fragment specific antibody (200 ng/well) in carbonate coating buffer. The wells were washed, blocked and 250 ng of IGF-1R-Fc was added per well.
The ligand blocking ability of the anti-IGF-1R antibody was determined by a solid phase RIA capture method as described in Example 3. […] After 1 hour of incubation at room temperature, the wells were washed and counted for bound radioactivity by a Gamma Counter. An isotype matched negative antibody control, IDEC-151 (human G4), was used. Percent (%) inhibition was calculated as =[1−(Ave.CPM with Ab)/(Ave.CPM with buffer)]×100%.

The next assay deals with NCI-H23. The assay is described as follows: IGF driven tumor cell growth, CELL TITER-GLO, H-23. It counts as cell-based, human. The following applies: for inhibition of IGF-1 and IGF-2 driven cell proliferation in H-23: NCI-H23 lung tumor cell line; for Proliferation of Tumor Cells H-23: lung cancer cells. As to the method:
as §1, §2, §3
A commercially available anti-IGF-1R antibody (IR3) was used as a positive control. The mouse IgG (anti-IDectin, IgG1) and human gamma 4 version of IDEC-152 antibody of irrelevant specificity were used as isotype matched controls for the experiments. […]

The next assay has as its system Colo-205. The assay is described as follows: IGF driven tumor cell growth, CELL TITER-GLO, Colo-205. Type of assay: cell-based, human. The following applies: colon cancer cell. As to the method:
as §1, §2, §3

B1: P2A7.3E11: murine anti-human IGF-1R monoclonal antibody from hybridoma; VH SEQ ID NO:38, VL SEQ ID NO:98 (antibody, V domains shown)
VH: QVQLQQSGPELVKPGASVKMSCKASGNTFTDYVINWVKQRTGQGLEWIGEIYPGNENTYYNEKFKGKATLTADKSSNTAYMQLSSLTSEDSAVYFCARGIYYYGSRTRTMDYWGQGTSVTVSS
VL: EVVLTQSPTAMAASPGEKITITCSASSTLSSNYLHWYQQKPGFSPKLLIYRTSNLASGVPGRFSGSGSGTSYSLTIGTMEAEDVATYYCQQGSSIPLTFGAGTKLELK
modifications: Antibody variable heavy chain sequence; Antibody variable light chain sequence
Consider B1, for which the “Proliferation of Tumor Cells MCF-7* (Ki67 Inhibit.)” value (“Proliferation … (Ki67 Inhibit.)” for short) in the assay with MCF-7 is on record as “++ (>50%@1 μg/ml)”. Moreover, the “Proliferation of Tumor Cells Panc-1” value in the assay with Panc-1 is “++++ (>30%@0.01 μg/ml)”. The “Proliferation of Tumor Cells Calu-6” value with Calu-6 is listed as “+++ (>30%@0.1 μg/ml)”. In the assay with IGF-1R phosphorylation, the “Inhibition of IGF-1R.pTyr IGF-1” value is recorded as “+++ (>30%@0.1 μg/ml)” and the “Inhibition of IGF-1R.pTyr IGF-2” value was “++ (>30%@1 μg/ml)”. The “IGF Blocking IGF-1” value in the assay with IGF-1R was “+++ (>40%@0.1 μg/ml)”. For the same molecule, in the assay with NCI-H23, the “inhibition of IGF-1 and IGF-2 driven cell proliferation in H-23” value is “showed inhibition”; the “Proliferation of Tumor Cells H-23” value is on record as “++++ (>30%@0.01 μg/ml)”. In addition, in the assay on Colo-205, the “Proliferation of Tumor Cells Colo-205” value is recorded as “+++ (>30%@0.1 μg/ml)”.

B2: P1E2.3B12: murine anti-human IGF-1R monoclonal antibody from hybridoma; VH SEQ ID NO:63, VL SEQ ID NO:118 (antibody, V domains shown)
VH: QVQLQQPGAELVKPGASVKLSCKASGYTFTSYWMHWVKQRPGQGLEWIGEINPTYGRSNYNEKFKSKATLTVDKSSSTAYMQLSSLTSEDSAVYYCARLVRLRYFDVWGAGTTVTVSS
VL: DIVMTQAAFSNPVTLGTSASISCRSSKSLLHSNGITYLYWYLQKPGQSPQLLIYQMSNLASGVPDRFSSSGSGTDFTLRISRVEAEDVGVYYCAQNLELPYTFGGGTKLEIK
modifications: Antibody variable heavy chain sequence; Antibody variable light chain sequence
For the molecule B2, the “Proliferation … (Ki67 Inhibit.)” value with MCF-7 is given as “++ (>50%@1 μg/ml)”. For the same molecule, the “Proliferation of Tumor Cells Panc-1” value in the assay with Panc-1 is on record as “++ (>30%@1 μg/ml)”. In the assay with Calu-6, the “Proliferation of Tumor Cells Calu-6” value is recorded as “++ (>30%@1 μg/ml)”. In the assay with IGF-1R phosphorylation, the “Inhibition of IGF-1R.pTyr IGF-1” value is recorded as “+++ (>30%@0.1 μg/ml)” and the “Inhibition of IGF-1R.pTyr IGF-2” value is given as “+++ (>30%@0.1 μg/ml)”. For the same molecule, the “IGF Blocking IGF-1” value with IGF-1R was “+++ (>40%@0.1 μg/ml)”. The “Proliferation of Tumor Cells H-23” value with NCI-H23 was “++++ (>30%@0.01 μg/ml)”. For the same molecule, in the assay on Colo-205, the “Proliferation of Tumor Cells Colo-205” value is on record as “++ (>30%@1 μg/ml)”.

B3: P1A2.2B11: murine anti-human IGF-1R monoclonal antibody from hybridoma; VH SEQ ID NO:48, VL SEQ ID NO:108 (antibody, V domains shown)
VH: QIQLVQSGPELKKPGETVKISCKASGYTFTNHGMNWVKQAPGKGLKWMGWNTSTGEPTYADDFKGRFAFSLETSASTAFLQINNLKNEDTASYFCASPLYYMYGRYIDVWGAGTAVTVSS
VL: DIQMTQTTSSLSASLGDRVTISCRASQDISNYLNWYQQKPDGTIKLLIYYTSRLHSGVPSRFSGSGSGTDYSLTISNLEQEDFATYFCQQGKTLPWTFGGGTKLEIK
modifications: Antibody variable heavy chain sequence; Antibody variable light chain sequence
For B3, the “Proliferation … (Ki67 Inhibit.)” value in the assay with MCF-7 was “++ (>50%@1 μg/ml)”. For the same molecule, the “Proliferation of Tumor Cells Panc-1” value with Panc-1 was “+++ (>30%@0.1 μg/ml)”. Also, in the assay with Calu-6, the “Proliferation of Tumor Cells Calu-6” value is reported as “++ (>30%@1 μg/ml)”. In addition, in the assay with IGF-1R phosphorylation, the “Inhibition of IGF-1R.pTyr IGF-1” value is given as “+++ (>30%@0.1 μg/ml)” and the “Inhibition of IGF-1R.pTyr IGF-2” value is on record as “+++ (>30%@0.1 μg/ml)”. Further, the “IGF Blocking IGF-1” value in the assay with IGF-1R is on record as “+++ (>40%@0.1 μg/ml)”. Moreover, in the assay on NCI-H23, the “inhibition of IGF-1 and IGF-2 driven cell proliferation in H-23” value was “showed inhibition”; the “Proliferation of Tumor Cells H-23” value is reported as “+++ (>30%@0.1 μg/ml)”. The “Proliferation of Tumor Cells Colo-205” value with Colo-205 is reported as “+++ (>30%@0.1 μg/ml)”.

For the origin of these results see patent US20090291088A1, “THERAPEUTIC COMBINATIONS OF ANTI-IGF-1R ANTIBODIES AND OTHER COMPOUNDS” (Biogen Idec MA Inc., priority 2008, published 2009).
